B1: DNA repair protein rad60 (Schizosaccharomyces pombe (strain ATCC 38366 / 972)), Q9USX3 (parent)
chain: MDNLDEDDLAFFSKPIKKPPLNYAKQLIASSSDSEEESELDTNKQALEHINAQKNITHNENKSAEPLSRQSTILDADEGNQDVSDTTPNACLNEGRHSPKSAISCVTQPVSPVYNTRAAANLRNNSINSEAALSTTSSLLDDDFARRLEEIDRQVQEFEKSSSDMDVQIHTHKREIEEDDDNTSADVPLLKHSKSDHSTLYHSKSEFSTNEPVISVVLQLAVIGQRIPNSNISLPRDWEAPLFFKVKSNQQFRRVRIAYSERKKVDNVVLVFQNQRLWDYGTPKGAGMLKVDTRLVVHAYCHSDFISLKRIKELEVEKLSSVTEDSTAQTCKLITLLLRSSKSEDLRLSIPVDFTVKDLIKRYCTEVKISFHERIRLEFEGEWLDPNDQVQSTELEDEDQVSVVLD
partner: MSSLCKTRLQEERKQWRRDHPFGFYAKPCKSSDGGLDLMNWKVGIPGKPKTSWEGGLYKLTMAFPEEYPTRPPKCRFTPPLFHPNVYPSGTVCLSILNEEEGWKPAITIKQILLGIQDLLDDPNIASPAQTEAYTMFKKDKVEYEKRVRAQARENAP

Variants of: B1
Details: with ubc9_schpo hus5, P40984

Variant | effect of a mutation on the interaction
E380R | disrupting interaction
